# *1 amine or outer side, *2 acyl side, *3 side chain or, on linkers, in order; H or OH if unused. Bridges are numbered along the chain shown (N, C = ends). Primed or numbered codes have the meaning given here. [ ]: non-standard residue; d: D form. B5(4) = 2-amino-2-(pent-4-en-1-yl)hept-6-enoic acid, stapled through each of its two olefin groups with other olefin-containing amino acid residues, O=C(C(CCCC=[*:3])(CCCC=[*:4])N[*:1])[*:2]; PyrS2″ = (S)-3-amino-1-((pent-4-en-1-yloxy)carbonyl)pyrrolidine-3-carboxylic acid (olefin stapling residue), C=CCCCOC(=O)N1CC[C@@](N[*:1])(C(=O)[*:2])C1; PyrS2(5) = (S)-3-amino-1-((pent-4-en-1-yloxy)carbonyl)pyrrolidine-3-carboxylic acid, C=CCCCOC(=O)N1CC[C@@](N[*:1])(C(=O)[*:2])C1; 2F3MeF(3) = aromatic amino acid residue, Cc1cccc(C[C@H](N[*:1])C(=O)[*:2])c1F; Phe(3-COOH) = N[C@@H](Cc1cccc(C(=O)O)c1)C(=O)O; 2F3MeF = Cc1cccc(C[C@H](N[*:1])C(=O)[*:2])c1F; Bta = N[C@@H](Cc1csc2ccccc12)C(=O)O; αAllylPro = C=CC[C@@]1(C(=O)O)CCCN1; BztA = aromatic amino acid residue; tBuAla = CC(C)(C)C[C@H](N)C(=O)O; Cha = N[C@@H](CC1CCCCC1)C(=O)O; PyrS2(4) = not defined here; GlnR = not defined here; PL3 = not defined here; B5 = not defined here
# B1: I-100 (peptide)
# peptide: Ac-[PL3]D[tBuAla][B5]D[Phe(3-COOH)][tBuAla]AFK[PyrS2(4)][2F3MeF][Bta][GlnR]A-NH2
# modifications: staple 1-4; bridge 10-14; not fully specified (residue 10); printed as Ac-PL3-Asp-Npg-B5-Asp-3COOHF-Npg-Ala-Phe-Lys*3-PyrS2-2F3MeF-BztA-GlnR*3-Ala-NH2; reading uncertain; also: PyrS2 tied into a staple, partner not placed
# B2: I-105 (peptide)
# peptide: Ac-[PL3]D[tBuAla][B5]D[Phe(3-COOH)]AAFK[PyrS2(4)][2F3MeF][Bta][GlnR]L-NH2
# modifications: staple 1-4; bridge 10-14; not fully specified (residue 10); printed as Ac-PL3-Asp-Npg-B5-Asp-3COOHF-Ala-Ala-Phe-Lys*3-PyrS2-2F3MeF-BztA-GlnR*3-Leu-NH2; reading uncertain; also: PyrS2 tied into a staple, partner not placed
# B3: I-103 (peptide)
# peptide: Ac-[PL3]D[Cha][B5]D[Phe(3-COOH)][Cha]AFK[PyrS2(4)][2F3MeF][Bta][GlnR]A-NH2
# modifications: staple 1-4; bridge 10-14; not fully specified (residue 10); printed as Ac-PL3-Asp-Cha-B5-Asp-3COOHF-Cha-Ala-Phe-Lys*3-PyrS2-2F3MeF-BztA-GlnR*3-Ala-NH2; reading uncertain; also: PyrS2 tied into a staple, partner not placed
# B4: I-92 (peptide)
# peptide: Ac-[αAllylPro]D[tBuAla][B5(4)]D[Phe(3-COOH)][GlnR]AFL[PyrS2(5)][2F3MeF(3)][BztA][GlnR](diaminobutane)A-NH2
# modifications: staple 1-4 (inferred); not fully specified (bridges); printed as Ac-PL3-Asp-Npg-B5-Asp-3COOHF-GlnR-Ala-Phe-Leu-PyrS2-2F3MeF-BztA-[diaminobutane]GlnR-Ala-NH2; reading uncertain
# B5: I-99 (peptide)
# peptide: Ac-[PL3]D[tBuAla][B5]D[Phe(3-COOH)][tBuAla]AFK[PyrS2″][2F3MeF(3)][BztA][GlnR]A-NH2
# modifications: staple 1-4 (inferred); bridge 10-14; not fully specified (residue 10, bridges); printed as Ac-PL3-Asp-Npg-B5-Asp-3COOHF-Npg-Ala-Phe-Lys*3-PyrS2-2F3MeF-BztA-GlnR*3-Ala-NH2; reading uncertain; also: Lys10 and GlnR14 marked *3
# B6: I-102 (peptide)
# peptide: Ac-[PL3]D[tBuAla][B5]D[Phe(3-COOH)][Cha]AFK[PyrS2(4)][2F3MeF][Bta][GlnR]A-NH2
# modifications: staple 1-4; bridge 10-14; not fully specified (residue 10); printed as Ac-PL3-Asp-Npg-B5-Asp-3COOHF-Cha-Ala-Phe-Lys*3-PyrS2-2F3MeF-BztA-GlnR*3-Ala-NH2; reading uncertain; also: PyrS2 tied into a staple, partner not placed
# B7: I-98 (peptide)
# peptide: Ac-[PL3]D[Cha][B5]D[Phe(3-COOH)]AAFK[PyrS2″][2F3MeF(3)][BztA][GlnR]A-NH2
# modifications: staple 1-4 (inferred); bridge 10-14; not fully specified (residue 10, bridges); printed as Ac-PL3-Asp-Cha-B5-Asp-3COOHF-Ala-Ala-Phe-Lys*3-PyrS2-2F3MeF-BztA-GlnR*3-Ala-NH2; reading uncertain; also: Lys10 and GlnR14 marked *3
# Molecular target: beta-catenin (human)
# Sequence (B6V8E6 146-665 limits assumed): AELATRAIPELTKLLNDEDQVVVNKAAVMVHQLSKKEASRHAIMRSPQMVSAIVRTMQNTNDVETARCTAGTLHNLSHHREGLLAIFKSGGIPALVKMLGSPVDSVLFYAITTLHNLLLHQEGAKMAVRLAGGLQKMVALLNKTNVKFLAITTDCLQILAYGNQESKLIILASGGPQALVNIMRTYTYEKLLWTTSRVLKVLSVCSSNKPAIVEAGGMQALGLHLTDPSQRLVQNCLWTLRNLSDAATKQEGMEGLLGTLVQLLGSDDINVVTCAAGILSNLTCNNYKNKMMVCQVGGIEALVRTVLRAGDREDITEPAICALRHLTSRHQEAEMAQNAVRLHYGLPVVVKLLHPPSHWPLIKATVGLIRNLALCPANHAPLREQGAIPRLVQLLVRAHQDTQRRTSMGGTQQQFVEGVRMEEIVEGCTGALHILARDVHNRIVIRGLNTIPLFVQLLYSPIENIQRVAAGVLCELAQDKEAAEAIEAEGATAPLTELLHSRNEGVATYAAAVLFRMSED
# Assay: fluorescence polarization
row,Binder,IC50
1,B1,< 50 nM
2,B2,< 50 nM
3,B3,< 50 nM
4,B4,< 50 nM
5,B5,< 50 nM
6,B6,< 50 nM
7,B7,< 50 nM

# — US20260207704A1, “STAPLED PEPTIDES AND METHODS THEREOF” (priority 2022, published 2026)
